The text below walks through data of US20260232824A1 (CHAMPIONS ONCOLOGY, published 2026).

Residue numbers refer to the chain shown, from its start.

B1: Ab-007 (antibody, human IgG1, kappa, V domains shown)
VH: EVQLVESGGGVVRPGGSLRLSCAASGFTFDDYAMSWVRQAPGKGLEWVSDINWNGGTTSYADSVKGRFTISRDNAKNSLFLQMNSLRAEDTALYYCARKGRDTVVVKGYYYFSYYMDVWGKGSTVTVSS
VL: not shown
notes: also called ChampmAb-007; Champ mAb-007
B2: Ab-006 (antibody, human IgG1, kappa, V domains shown)
VH: EVQLVESGGGLVKPGGSLRLSCTASGFTFDDYDMTWVRQAPGKGLEWVSGINWNGGNTDYADSVKGRFTISRDNTKNSLYLQMNSLRAEDTALYYCARKGRDIVVVKGFYYHYYYMDVWGKGITVTVSS
VL: not shown
notes: also called ChampmAb-006; Champ mAb-006
B3: Ab-002 (antibody, human IgG1, kappa, V domains shown)
VH: EVQLVESGGGLVQPGGSLRLSCAASGFTSVDYAMHWVRQAPGKGLEWVSYISWNNNNIGYADSVKGRFTISRDNAKNSLYLHMSSLRAEDTALYYCAKDIAYNTGYFDYWGQGTLVTVSS
VL: not shown
B4: Ab-008 (antibody, human IgG1, kappa, V domains shown)
VH: EVQLVESGGGLVQPGRSLRLSCTTSGFTFADYAMHWVRQTPGQGLEWVSGISWNGGTMGYADSVKGRFTISRDIAKNSLYLQMNSLRAEDTALYYCAKDIAYSRGYFQHWGQGTLVTVSS
VL: DIQMTQSPSSLSASVGDRVTITCRASQGIRNDLGWYQQKPGKAPKLLIYAASTLQSGVPSRFSGSGSGTDFTLTISSLQPEDVATYYCQKYNSAPFTFGPGTKVDIKR
B5: Ab-016 (antibody, human IgG1, kappa, V domains shown)
VH: B4 VH with Q43K, M58I
VL: not shown
B6: Ab-012 (antibody, human IgG1, kappa, V domains shown)
VH: B4 VH
VL: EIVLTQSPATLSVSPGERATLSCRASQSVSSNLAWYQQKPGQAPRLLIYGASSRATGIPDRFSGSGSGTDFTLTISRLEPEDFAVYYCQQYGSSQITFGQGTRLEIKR
B7: Ab-009 (antibody, human IgG1, kappa, V domains shown)
VH: B4 VH with Q43K, G56V, M58I, G59D
VL: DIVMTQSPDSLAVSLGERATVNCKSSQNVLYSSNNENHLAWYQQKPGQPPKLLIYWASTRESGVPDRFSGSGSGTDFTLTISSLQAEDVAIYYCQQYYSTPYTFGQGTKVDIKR
B8: Ab-014 (antibody, human IgG1, kappa, V domains shown)
VH: B4 VH with Q43K, G56V, M58I, G59D
VL: not shown
notes: also called CHAMPmAB-014
B9: Ab-003 (antibody, human IgG1, kappa, V domains shown)
VH: B4 VH
VL: not shown
B10: Ab-004 (antibody, human IgG1, kappa, V domains shown)
VH: B4 VH with R16G, Q43K, G56V, M58I, G59D
VL: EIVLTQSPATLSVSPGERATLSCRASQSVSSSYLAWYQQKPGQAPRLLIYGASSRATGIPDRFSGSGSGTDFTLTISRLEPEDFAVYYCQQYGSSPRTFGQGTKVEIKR
notes: also called CHAMPmAB-004
B11: Ab-017 (antibody, human IgG1, kappa, V domains shown)
VH: B4 VH
VL: not shown
B12: Ab-005 (antibody, human IgG1, kappa, V domains shown)
VH: B4 VH with R16G, Q43K, M58I
VL: not shown
B13: Ab-010 (antibody, human IgG1, kappa, V domains shown)
VH: B4 VH with R16G, T24S, Q43K, M58F, G59D, A88V
VL: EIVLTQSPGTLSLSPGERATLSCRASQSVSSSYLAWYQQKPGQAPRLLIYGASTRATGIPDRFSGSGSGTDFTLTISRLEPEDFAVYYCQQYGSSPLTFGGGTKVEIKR

For the first experiment, the target named is T1, human CD180 extracellular domain (ECD) HIS-tagged protein (Creative Biomart, CD180-3900H) (human, UniProt Q99467 24-626).
T1 construct: extracellular domain; Bought protein; also called soluble human CD180 from Creative Biomart; not shown: His tag
T1 sequence (looked up): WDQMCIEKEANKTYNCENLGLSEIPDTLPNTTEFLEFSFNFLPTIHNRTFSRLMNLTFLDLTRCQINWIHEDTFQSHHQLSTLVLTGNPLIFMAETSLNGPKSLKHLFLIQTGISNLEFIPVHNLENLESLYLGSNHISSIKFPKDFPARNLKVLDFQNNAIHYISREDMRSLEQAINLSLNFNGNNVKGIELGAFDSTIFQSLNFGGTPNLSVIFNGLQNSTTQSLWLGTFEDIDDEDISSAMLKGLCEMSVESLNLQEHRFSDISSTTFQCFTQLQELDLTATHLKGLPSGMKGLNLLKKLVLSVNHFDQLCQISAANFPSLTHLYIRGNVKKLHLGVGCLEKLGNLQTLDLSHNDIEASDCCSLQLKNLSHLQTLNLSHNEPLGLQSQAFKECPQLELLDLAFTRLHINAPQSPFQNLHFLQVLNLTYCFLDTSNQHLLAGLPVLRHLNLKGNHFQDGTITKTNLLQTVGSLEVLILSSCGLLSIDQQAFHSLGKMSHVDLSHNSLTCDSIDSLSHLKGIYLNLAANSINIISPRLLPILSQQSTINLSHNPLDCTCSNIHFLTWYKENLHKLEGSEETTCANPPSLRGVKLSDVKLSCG
Put plainly: SPR, antibody captured in a bivalent format, soluble human CD180 from Creative Biomart passed over (FIG. 3B). Here is the method:
(§1) FIGS. 3A-3C show intrinsic binding affinity of the antibodies as determined by Surface Plasmon Resonance (SPR) assay. Antibody was captured in a bivalent format and soluble human CD180 from Sino Biologics (FIG. 3A), Creative Biomart (FIG. 3B), or soluble rhesus CD180 (FIG. 3C) was passed over the captured antibody. […] Kon, koff and KD are indicated for each condition.
(§2) Surface Plasmon Resonance (SPR) was used to identify intrinsic binding affinity. Kinetic experiments were performed on Carterra LSA with a running buffer of PBS pH 7.40, 1% BSA, 0.05% Tween20. Antibodies were captured on an anti-human Fc capture chip prepared with a HC30M chip. […] For each concentration, there was 5 min association followed by 15 min dissociation. Results were processed and analyzed in Carterra LSA Kinetics Software. The kinetic data was referenced with the interstitial reference spots and double-referenced to a buffer cycle, and then fit globally to a 1:1 binding model to determine their apparent association and dissociation kinetic rate constants (kₒₙ and koff values). The ratio koff/kₒₙ was used to derive the KD value of each antigen/mAb interaction, i.e., KD=koff/kₒₙ.
As to B1, the binding result was “binds”.

For the molecule B2, the binding result is “binds”.

In the next experiment the target is T2, human MD-1 on HEK293 cells (human, UniProt O95711 21-162).
T2 construct: whole, on cells; also called HEK293 expressing MD-1 only; MD-1 cells
T2 sequence (looked up): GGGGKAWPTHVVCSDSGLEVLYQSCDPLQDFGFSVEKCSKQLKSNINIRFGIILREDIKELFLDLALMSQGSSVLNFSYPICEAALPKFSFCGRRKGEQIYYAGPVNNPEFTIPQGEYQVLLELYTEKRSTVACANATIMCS
Put plainly: cell binding screen by flow cytometry (called cell-based ELISA), HEK293 expressing MD-1 only. As to the method:
(§3) FIGS. 1A-IC show the cell binding properties of the anti-CD180 antibodies. All CHAMP mAbs were subjected to binding assays via cell-based ELISA. FIG. 1A: Antibodies were screened at […] and 30 nM in a cell-based ELISA using HEK293 expressing CD180/MD-1. […] P84, mouse IgG, and 2nd only mouse were negative controls. […] FIG. 1B: Antibodies were screened at […] in cell-based ELISA using HEK293 expressing MD-1 only. […] FIG. 1C: Antibodies were screened at […] in cell-based ELISA using HEK293 parental cell line.
(§4) All mAbs were subjected to cell binding screen detected on a flow cytometer. Engineered cells expressing CD180/MD-1, MD-1, or parental HEK cells were used to test for binding of the antibodies. Antibodies at a concentration of 100 nM or 30 nM were incubated with cells at 4° C. for 45 min. R-Phycoerythrin AffiniPure Goat Anti-Human IgG (Jackson Immunoresearch 109-115-098) was used as the secondary antibody. The binding of antibodies on cells were detected on Intellicyt iQue3 VBR.
(Flow cytometry measures light scatter and fluorescence of single cells or particles in a stream.)
As for B1, the binding result is “no binding (tested: 100 nM)”.

For the molecule B3, the binding result is “no binding (tested: 100 nM)”.

For B4, the binding result was “no binding (tested: 100 nM)”.

For B5, the binding result is “no binding (tested: 100 nM)”.

B6: the binding result is given as “no binding (tested: 100 nM)”.

As to B7, the binding result was “no binding (tested: 100 nM)”.

Regarding B8, the binding result is reported as “no binding (tested: 100 nM)”.

As for B9, the binding result is “no binding (tested: 100 nM)”.

Turning to B10, the binding result was “no binding (tested: 100 nM)”.

As to B11, the binding result is listed as “no binding (tested: 100 nM)”.

As to B12, the binding result is reported as “no binding (tested: 100 nM)”.

Regarding B13, the binding result is recorded as “no binding (tested: 100 nM)”.

B2: the binding result is reported as “no binding (tested: 100 nM)”.

The target of another experiment is T3, human CD180 extracellular domain (ECD) HIS-tagged protein (Sino Biological, 11370-H08H) (human, UniProt Q99467 24-626).
T3 construct: extracellular domain; Bought protein; also called soluble human CD180 from Sino Biologics; human CD180(ECD)-HIS; not shown: His tag
T3 sequence (looked up): T1 sequence (looked up)
Put plainly: SPR, antibody captured in a bivalent format, soluble human CD180 from Sino Biologics passed over (FIG. 3A). As to the method: as §1, §2
Turning to B1, the binding result is “binds”.

Consider B2, for which the binding result was “binds”.

Another experiment addresses T4, human CD180/human MD-1 on HEK293 cells (human, UniProt Q99467 24-661; O95711 21-162).
T4 construct: whole, on cells; Complex co-expressed on HEK293 cells; also called HEK293 expressing CD180/MD-1; HEK293 CD180/MD-1 cells
T4 sequence (looked up) 1: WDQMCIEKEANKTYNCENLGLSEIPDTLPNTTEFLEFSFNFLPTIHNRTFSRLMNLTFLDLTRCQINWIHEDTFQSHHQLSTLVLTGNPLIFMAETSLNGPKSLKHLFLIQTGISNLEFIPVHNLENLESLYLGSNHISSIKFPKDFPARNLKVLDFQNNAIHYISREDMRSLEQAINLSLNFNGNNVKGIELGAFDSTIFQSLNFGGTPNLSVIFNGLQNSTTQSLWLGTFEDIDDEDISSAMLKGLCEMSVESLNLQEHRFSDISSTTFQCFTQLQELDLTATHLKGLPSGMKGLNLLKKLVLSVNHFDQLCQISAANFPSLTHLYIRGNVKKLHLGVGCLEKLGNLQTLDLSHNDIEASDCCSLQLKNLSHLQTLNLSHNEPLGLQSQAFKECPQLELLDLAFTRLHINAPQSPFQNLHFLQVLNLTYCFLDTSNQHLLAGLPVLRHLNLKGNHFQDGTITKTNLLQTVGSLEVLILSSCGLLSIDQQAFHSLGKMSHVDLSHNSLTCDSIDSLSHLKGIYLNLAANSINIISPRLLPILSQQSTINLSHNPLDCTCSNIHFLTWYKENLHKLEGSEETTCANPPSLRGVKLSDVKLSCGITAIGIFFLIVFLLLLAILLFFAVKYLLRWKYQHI
T4 sequence (looked up) 2: T2 sequence (looked up)
Put plainly: cell-based ELISA / flow cytometry, HEK293 expressing CD180/MD-1, 100 nM and 30 nM. Here is the method:
as §3, §4
In the case of B1, the binding result is “binds”.

As for B4, the binding result was “binds”.

For the molecule B5, the binding result is recorded as “binds”.

Regarding B6, the binding result was “binds”.

Regarding B11, the binding result was “binds”.

In the case of B13, the binding result is reported as “binds”.

The target in the next experiment is T4, human CD180/human MD-1 on HEK293 cells. Put plainly: cell binding screen by flow cytometry, cells expressing CD180/MD-1, 100 nM or 30 nM. Here is the method: as §3, §4
For B3, the binding result was “binds”.

For B9, the binding result is on record as “binds”.

On to B10, for which the binding result is on record as “binds”.

B12: the binding result is “binds”.

As to B2, the binding result is “binds”.

The next experiment has the same target. The experiment in a line: cell binding on HEK293 CD180/MD-1 cells (FIG. 14G). Here is the method: Cells were then incubated with the secondary antibody R-Phycoerythrin AffiniPure Goat Anti-Human IgG (Jackson Immunoresearch 109-115-098). The data was acquired on Intellicyt iQue3 VBR. Median fluorescence intensities (MFI) were plotted against the concentrations of the anti-CD180 antibodies.
B8: the EC50 is 4 nM.

The EC50 is the midpoint of the concentration-response curve. High values mean a need for much substance, low ones an effect from little substance.
